Assay results as given in article PMC9340162, “The Central Circadian Clock Protein TaCCA1 Regulates Seedling Growth and Spike Development in Wheat (Triticum aestivum L.)”.
One block for each molecule: values may come before it.

Key:
[1] = target: MBP-TaCCA1-7D fusion protein (Triticum aestivum (bread wheat)); assay: BLI; ForteBio Octet RED 96e; streptavidin (SA) biosensors loaded with 10.0 ug/ml biotinylated recombinant TaCCA1-7D; TaCCA1-7A or TaCCA1-7B in solution at 10-630 nM, low to high concentration; KD as the ratio of dissociation and association rate constants
[2] = target: T1, MBP-TaCCA1-7D (Triticum aestivum, UniProt A0A3B6TKA2 1-718); assay: BLI; single-digit nM per text; exact value in Table S6 not in material; EMSA: 150 ng protein, 2 pM DIG probe, 10 ul, 1 h on ice, 6% PAGE in 0.5x TBE pH 8.0; BLI: Octet RED96e, SA sensors with biotinylated TaCCA1-7D; buffers not stated; settings: protein: recombinant, tags: MBP (pMAL-c2X, N-terminal), biotinylated for BLI, blunt
T1 sequence (A0A3B6TKA2 entry or part of it): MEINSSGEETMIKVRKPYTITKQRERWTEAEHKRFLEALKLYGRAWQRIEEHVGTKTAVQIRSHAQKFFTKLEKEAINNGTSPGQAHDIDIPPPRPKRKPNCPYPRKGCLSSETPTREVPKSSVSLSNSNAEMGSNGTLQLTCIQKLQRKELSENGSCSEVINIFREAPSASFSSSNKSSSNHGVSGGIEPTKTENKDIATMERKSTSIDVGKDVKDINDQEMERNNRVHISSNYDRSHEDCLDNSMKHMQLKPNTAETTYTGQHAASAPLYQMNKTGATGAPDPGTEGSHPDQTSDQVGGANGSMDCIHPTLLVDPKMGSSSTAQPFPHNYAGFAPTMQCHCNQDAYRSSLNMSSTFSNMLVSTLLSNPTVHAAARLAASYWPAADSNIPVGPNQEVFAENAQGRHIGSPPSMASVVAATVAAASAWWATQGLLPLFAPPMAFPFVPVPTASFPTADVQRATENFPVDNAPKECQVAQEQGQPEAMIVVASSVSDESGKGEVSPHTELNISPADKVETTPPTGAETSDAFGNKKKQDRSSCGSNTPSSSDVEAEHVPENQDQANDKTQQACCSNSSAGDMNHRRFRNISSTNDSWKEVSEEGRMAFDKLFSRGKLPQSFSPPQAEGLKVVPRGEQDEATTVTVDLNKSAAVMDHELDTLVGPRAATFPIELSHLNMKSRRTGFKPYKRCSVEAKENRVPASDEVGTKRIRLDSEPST

[3] = target: T1, MBP-TaCCA1-7D; assay: BLI; kon 1.35E+05 1/Ms; koff 2.42E-04 1/s; EMSA: 150 ng protein, 2 pM DIG probe, 10 ul, 1 h on ice, 6% PAGE in 0.5x TBE pH 8.0; BLI: Octet RED96e, SA sensors with biotinylated TaCCA1-7D; buffers not stated; settings: protein: recombinant; tags: MBP (pMAL-c2X, N-terminal); biotinylated for BLI; label: 5' biotin; blunt
[4] = label: 5' biotin (BLI), DIG (EMSA)

Kd [1]: 27.8 nM | koff [1]: 0.0012 s⁻¹ | kon [1]: 43000 M⁻¹ s⁻¹
Molecule: TaCCA1-7A (natural protein)

Kd [1]: 3.6 nM | koff [1]: 0.00133 s⁻¹ | kon [1]: 368000 M⁻¹ s⁻¹
Molecule: TaCCA1-7B (natural protein)

B1: DAP-3 (TraesCS2B02G491700 promoter) (dsDNA)
DNA 1: CTTCAGATTTGTTGATATTTTCATATTGCAGACAT
DNA 2: ATGTCTGCAATATGAAAATATCAACAAATCTGAAG
Kd [2, 4]: < 10 nM

B2: DAP-1 (TraesCS1D02G226100 promoter, CHLG) (dsDNA)
DNA 1: TTATATGCCTATATGATATTATGATTTATTTGGTTT
DNA 2: AAACCAAATAAATCATAATATCATATAGGCATATAA
Kd [3]: 1.79 nM

B3: DAP-2 (TraesCS1D02G295200 promoter) (dsDNA)
DNA 1: AAATAGAAAATTACTGATATTTCATCCTTGTGTGAT
DNA 2: ATCACACAAGGATGAAATATCAGTAATTTTCTATTT
Kd [2, 4]: < 10 nM

B4: DAP-4 (TraesCS3B02G186700 promoter) (dsDNA)
DNA 1: AATAGAAAATTACTGATATTTCATCCTTATGAGATT
DNA 2: AATCTCATAAGGATGAAATATCAGTAATTTTCTATT
Kd ([2]; label: 5' biotin): < 10 nM
